To fix the notation:
T1: FcγRIIb extracellular domain with C-terminal His tag (human, UniProt P31994 43-217)
T1 construct: extracellular domain; Expressed in FreeStyle293 cells; used as analyte in Biacore; also called FcgRIIb; 2b; not shown: C-terminal His tag
T1 sequence (looked up): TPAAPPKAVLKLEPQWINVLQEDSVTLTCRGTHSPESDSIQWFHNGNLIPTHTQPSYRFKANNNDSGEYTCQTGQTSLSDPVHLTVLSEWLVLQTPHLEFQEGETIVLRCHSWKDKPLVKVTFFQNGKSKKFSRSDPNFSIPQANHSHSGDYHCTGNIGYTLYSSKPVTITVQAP

B1: GpH7-B3 variant L328_14T/GpL16-k0 (Ho Ab) (antibody, human IgG1, kappa)
heavy: not shown
light: DIVMTQSPLSLPVTPGEPASISCQASESLVHSNRNTYLHWYLQKPGQSPQLLIYKVSNRFSGVPDRFSGSGSGTDFTLKISRVEAEDVGVYYCSQNTHVPPTFGQGTKVEIERTVAAPSVFIFPPSDEQLKSGTASVVCLLNNFYPREAKVQWKVDNALQSGNSQESVTEQDSKDSTYSLSSTLTLSKADYEKHKVYACEVTHQGLSSPVTKSFNRGEC
notes: Substitution in both H chains; position in EU numbering; also called L328T homodimerized antibody
B2: GpH7-B3 variant S337_14T/GpL16-k0 (Ho Ab) (antibody, human IgG1, kappa)
heavy: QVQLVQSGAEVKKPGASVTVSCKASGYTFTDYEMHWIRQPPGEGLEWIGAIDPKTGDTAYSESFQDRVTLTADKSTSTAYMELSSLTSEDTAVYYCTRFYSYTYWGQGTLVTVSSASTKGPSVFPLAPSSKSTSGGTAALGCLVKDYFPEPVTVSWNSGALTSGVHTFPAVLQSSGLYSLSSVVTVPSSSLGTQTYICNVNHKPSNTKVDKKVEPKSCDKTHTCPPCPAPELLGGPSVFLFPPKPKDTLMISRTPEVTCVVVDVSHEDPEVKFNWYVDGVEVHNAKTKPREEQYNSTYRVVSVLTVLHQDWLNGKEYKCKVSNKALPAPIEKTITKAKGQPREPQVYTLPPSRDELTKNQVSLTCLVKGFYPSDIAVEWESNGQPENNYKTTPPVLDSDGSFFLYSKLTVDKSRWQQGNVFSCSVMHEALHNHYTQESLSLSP
light: B1 light
notes: Substitution in both H chains; position in EU numbering; also called S337T homodimerized antibody
B3: GpH7-B3 variant P271_08L/GpL16-k0 (Ho Ab) (antibody, human IgG1, kappa)
heavy: not shown
light: B1 light
notes: Substitution in both H chains; position in EU numbering; also called P271L homodimerized antibody
B4: GpH7-B3 variant S267_07I/GpL16-k0 (Ho Ab) (antibody, human IgG1, kappa)
heavy: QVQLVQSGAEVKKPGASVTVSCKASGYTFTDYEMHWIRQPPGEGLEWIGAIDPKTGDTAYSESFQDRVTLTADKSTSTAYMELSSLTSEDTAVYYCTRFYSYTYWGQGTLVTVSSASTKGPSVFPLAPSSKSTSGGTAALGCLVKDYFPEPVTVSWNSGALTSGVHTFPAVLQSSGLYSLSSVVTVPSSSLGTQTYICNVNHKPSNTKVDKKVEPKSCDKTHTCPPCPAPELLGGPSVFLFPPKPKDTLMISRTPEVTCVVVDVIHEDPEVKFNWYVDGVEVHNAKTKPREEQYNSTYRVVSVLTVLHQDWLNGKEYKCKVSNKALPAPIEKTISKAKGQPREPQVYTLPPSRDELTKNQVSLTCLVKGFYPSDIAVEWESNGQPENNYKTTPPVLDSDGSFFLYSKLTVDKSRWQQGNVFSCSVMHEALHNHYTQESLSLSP
light: B1 light
notes: Substitution in both H chains; position in EU numbering; also called S267I homodimerized antibody
B5: GpH7-B3 variant S239_18N/GpL16-k0 (Ho Ab) (antibody, human IgG1, kappa)
heavy: not shown
light: B1 light
notes: Substitution in both H chains; position in EU numbering; also called S239N homodimerized antibody
B6: GpH7-B3 variant S337_10E/GpL16-k0 (Ho Ab) (antibody, human IgG1, kappa)
heavy: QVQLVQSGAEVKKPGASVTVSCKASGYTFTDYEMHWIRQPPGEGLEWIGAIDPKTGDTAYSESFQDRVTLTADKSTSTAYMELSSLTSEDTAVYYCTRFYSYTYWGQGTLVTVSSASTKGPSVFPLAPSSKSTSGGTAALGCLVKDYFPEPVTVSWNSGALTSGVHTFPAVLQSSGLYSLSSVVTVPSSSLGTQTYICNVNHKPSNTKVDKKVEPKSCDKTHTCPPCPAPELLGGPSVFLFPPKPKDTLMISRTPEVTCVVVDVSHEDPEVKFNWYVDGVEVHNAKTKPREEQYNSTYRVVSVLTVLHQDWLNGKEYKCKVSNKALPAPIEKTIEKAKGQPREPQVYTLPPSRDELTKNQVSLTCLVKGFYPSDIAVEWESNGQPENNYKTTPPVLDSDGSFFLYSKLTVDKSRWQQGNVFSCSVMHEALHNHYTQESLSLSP
light: B1 light
notes: Substitution in both H chains; position in EU numbering; also called S337E homodimerized antibody
B7: GpH7-B3 variant S267_03V/GpL16-k0 (Ho Ab) (antibody, human IgG1, kappa)
heavy: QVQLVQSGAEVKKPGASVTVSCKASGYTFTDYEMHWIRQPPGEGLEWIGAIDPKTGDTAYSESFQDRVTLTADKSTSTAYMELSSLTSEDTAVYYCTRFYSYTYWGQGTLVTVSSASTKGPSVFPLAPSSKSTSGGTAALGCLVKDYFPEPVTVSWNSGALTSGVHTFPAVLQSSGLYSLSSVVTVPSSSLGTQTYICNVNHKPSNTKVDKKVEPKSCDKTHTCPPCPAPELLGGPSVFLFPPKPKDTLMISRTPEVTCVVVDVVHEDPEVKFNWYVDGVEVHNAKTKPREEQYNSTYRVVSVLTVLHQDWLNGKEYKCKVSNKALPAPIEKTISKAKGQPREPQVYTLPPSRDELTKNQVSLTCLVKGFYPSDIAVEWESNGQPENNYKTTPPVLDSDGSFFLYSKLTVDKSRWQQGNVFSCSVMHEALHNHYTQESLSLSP
light: B1 light
notes: Substitution in both H chains; position in EU numbering; also called S267V homodimerized antibody
B8: GpH7-B3 variant P331_04F/GpL16-k0 (Ho Ab) (antibody, human IgG1, kappa)
heavy: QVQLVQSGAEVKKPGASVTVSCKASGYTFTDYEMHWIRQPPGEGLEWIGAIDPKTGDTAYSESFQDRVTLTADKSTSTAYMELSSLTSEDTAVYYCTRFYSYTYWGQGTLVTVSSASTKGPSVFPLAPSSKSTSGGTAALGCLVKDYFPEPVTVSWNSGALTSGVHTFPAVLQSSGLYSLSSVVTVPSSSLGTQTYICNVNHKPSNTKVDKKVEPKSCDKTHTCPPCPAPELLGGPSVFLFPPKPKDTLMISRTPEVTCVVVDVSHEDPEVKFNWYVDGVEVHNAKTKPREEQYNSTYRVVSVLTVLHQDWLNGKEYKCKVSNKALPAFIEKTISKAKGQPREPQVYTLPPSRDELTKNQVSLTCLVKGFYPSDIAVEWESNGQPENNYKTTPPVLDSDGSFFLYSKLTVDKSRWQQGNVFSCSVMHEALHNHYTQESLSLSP
light: B1 light
notes: Substitution in both H chains; position in EU numbering; also called P331F homodimerized antibody
B9: GpH7-B3 variant P238_08L/GpL16-k0 (Ho Ab) (antibody, human IgG1, kappa)
heavy: not shown
light: B1 light
notes: Substitution in both H chains; position in EU numbering; also called P238L homodimerized antibody
B10: GpH7-B3 variant S239_07I/GpL16-k0 (Ho Ab) (antibody, human IgG1, kappa)
heavy: not shown
light: B1 light
notes: Substitution in both H chains; position in EU numbering; also called S239I homodimerized antibody
B11: GpH7-B3 variant S267_10E/GpL16-k0 (Ho Ab) (antibody, human IgG1, kappa)
heavy: not shown
light: B1 light
notes: Substitution in both H chains; position in EU numbering; also called S267E homodimerized antibody
B12: GpH7-B3 variant P271_01G/GpL16-k0 (Ho Ab) (antibody, human IgG1, kappa)
heavy: not shown
light: B1 light
notes: Substitution in both H chains; position in EU numbering; also called P271G homodimerized antibody
B13: GpH7-B3 variant S267_02A/GpL16-k0 (Ho Ab) (antibody, human IgG1, kappa)
heavy: not shown
light: B1 light
notes: Substitution in both H chains; position in EU numbering; also called S267A homodimerized antibody
B14: GpH7-B3 variant S239_09D/GpL16-k0 (Ho Ab) (antibody, human IgG1, kappa)
heavy: not shown
light: B1 light
notes: Substitution in both H chains; position in EU numbering; also called S239D homodimerized antibody
B15: GpH7-B3 variant S267_14T/GpL16-k0 (Ho Ab) (antibody, human IgG1, kappa)
heavy: not shown
light: B1 light
notes: Substitution in both H chains; position in EU numbering; also called S267T homodimerized antibody
B16: GpH7-B3 variant S298_08L/GpL16-k0 (Ho Ab) (antibody, human IgG1, kappa)
heavy: not shown
light: B1 light
notes: Substitution in both H chains; position in EU numbering; also called S298L homodimerized antibody
B17: GpH7-B3 variant L328_15Y/GpL16-k0 (Ho Ab) (antibody, human IgG1, kappa)
heavy: not shown
light: B1 light
notes: Substitution in both H chains; position in EU numbering; also called L328Y homodimerized antibody
B18: GpH7-B3 variant S239_01G/GpL16-k0 (Ho Ab) (antibody, human IgG1, kappa)
heavy: not shown
light: B1 light
notes: Substitution in both H chains; position in EU numbering; also called S239G homodimerized antibody
B19: GpH7-B3 variant Y300_19Q/GpL16-k0 (Ho Ab) (antibody, human IgG1, kappa)
heavy: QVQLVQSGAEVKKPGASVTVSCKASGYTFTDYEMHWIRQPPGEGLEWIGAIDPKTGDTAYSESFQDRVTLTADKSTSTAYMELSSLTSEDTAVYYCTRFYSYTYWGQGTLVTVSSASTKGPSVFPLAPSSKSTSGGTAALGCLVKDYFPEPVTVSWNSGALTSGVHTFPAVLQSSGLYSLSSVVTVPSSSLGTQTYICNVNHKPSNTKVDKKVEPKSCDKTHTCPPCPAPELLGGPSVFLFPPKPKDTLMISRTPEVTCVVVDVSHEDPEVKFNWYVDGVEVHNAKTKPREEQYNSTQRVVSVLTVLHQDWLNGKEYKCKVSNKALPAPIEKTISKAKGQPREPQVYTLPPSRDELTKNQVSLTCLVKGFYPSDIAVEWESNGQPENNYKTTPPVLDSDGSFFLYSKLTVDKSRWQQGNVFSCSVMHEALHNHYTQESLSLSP
light: B1 light
notes: Substitution in both H chains; position in EU numbering; also called Y300Q homodimerized antibody
B20: GpH7-B3 variant T335_08L/GpL16-k0 (Ho Ab) (antibody, human IgG1, kappa)
heavy: not shown
light: B1 light
notes: Substitution in both H chains; position in EU numbering; also called T335L homodimerized antibody
B21: GpH7-B3 variant L328_19Q/GpL16-k0 (Ho Ab) (antibody, human IgG1, kappa)
heavy: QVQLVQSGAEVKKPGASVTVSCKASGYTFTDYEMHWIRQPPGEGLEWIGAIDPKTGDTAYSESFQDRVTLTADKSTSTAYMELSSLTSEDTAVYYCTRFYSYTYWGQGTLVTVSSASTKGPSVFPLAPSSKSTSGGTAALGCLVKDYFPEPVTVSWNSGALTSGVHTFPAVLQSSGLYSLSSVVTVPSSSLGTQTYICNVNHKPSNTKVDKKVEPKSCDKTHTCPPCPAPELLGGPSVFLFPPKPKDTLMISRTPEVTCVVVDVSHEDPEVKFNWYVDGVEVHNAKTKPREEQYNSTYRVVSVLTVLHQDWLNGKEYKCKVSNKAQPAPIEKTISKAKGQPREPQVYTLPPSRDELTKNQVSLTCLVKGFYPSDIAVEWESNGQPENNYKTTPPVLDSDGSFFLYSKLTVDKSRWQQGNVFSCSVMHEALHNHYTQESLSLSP
light: B1 light
notes: Substitution in both H chains; position in EU numbering; also called L328Q homodimerized antibody
B22: GpH7-B3 variant S267_09D/GpL16-k0 (Ho Ab) (antibody, human IgG1, kappa)
heavy: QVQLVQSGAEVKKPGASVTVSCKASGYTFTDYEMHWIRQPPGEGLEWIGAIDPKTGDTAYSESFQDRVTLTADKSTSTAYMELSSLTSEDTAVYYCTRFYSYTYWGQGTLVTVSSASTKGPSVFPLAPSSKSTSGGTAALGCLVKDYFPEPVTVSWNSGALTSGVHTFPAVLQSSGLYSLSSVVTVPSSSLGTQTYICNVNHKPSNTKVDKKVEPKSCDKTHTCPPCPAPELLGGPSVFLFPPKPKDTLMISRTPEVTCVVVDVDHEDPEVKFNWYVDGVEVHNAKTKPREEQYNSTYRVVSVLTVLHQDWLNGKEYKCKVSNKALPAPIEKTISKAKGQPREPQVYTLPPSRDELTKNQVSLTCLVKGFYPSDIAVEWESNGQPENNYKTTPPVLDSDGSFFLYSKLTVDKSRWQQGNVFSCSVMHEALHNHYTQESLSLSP
light: B1 light
notes: Substitution in both H chains; position in EU numbering; also called S267D homodimerized antibody
B23: GpH7-B3 variant S337_09D/GpL16-k0 (Ho Ab) (antibody, human IgG1, kappa)
heavy: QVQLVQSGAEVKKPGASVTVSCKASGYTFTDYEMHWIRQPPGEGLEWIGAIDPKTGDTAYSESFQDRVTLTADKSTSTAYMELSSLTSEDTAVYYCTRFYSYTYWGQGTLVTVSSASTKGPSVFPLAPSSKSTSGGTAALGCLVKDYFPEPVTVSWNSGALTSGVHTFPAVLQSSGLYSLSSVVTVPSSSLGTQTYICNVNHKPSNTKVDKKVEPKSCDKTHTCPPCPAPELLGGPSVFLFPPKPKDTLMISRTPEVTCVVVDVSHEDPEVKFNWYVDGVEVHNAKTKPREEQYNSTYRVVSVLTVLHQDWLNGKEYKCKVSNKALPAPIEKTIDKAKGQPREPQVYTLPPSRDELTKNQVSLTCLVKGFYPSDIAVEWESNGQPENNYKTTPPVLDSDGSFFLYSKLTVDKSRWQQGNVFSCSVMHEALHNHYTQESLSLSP
light: B1 light
notes: Substitution in both H chains; position in EU numbering; also called S337D homodimerized antibody
B24: GpH7-B3 variant T335_09D/GpL16-k0 (Ho Ab) (antibody, human IgG1, kappa)
heavy: not shown
light: B1 light
notes: Substitution in both H chains; position in EU numbering; also called T335D homodimerized antibody
B25: GpH7-B3 variant S267_08L/GpL16-k0 (Ho Ab) (antibody, human IgG1, kappa)
heavy: not shown
light: B1 light
notes: Substitution in both H chains; position in EU numbering; also called S267L homodimerized antibody
B26: GpH7-B3 variant S239_08L/GpL16-k0 (Ho Ab) (antibody, human IgG1, kappa)
heavy: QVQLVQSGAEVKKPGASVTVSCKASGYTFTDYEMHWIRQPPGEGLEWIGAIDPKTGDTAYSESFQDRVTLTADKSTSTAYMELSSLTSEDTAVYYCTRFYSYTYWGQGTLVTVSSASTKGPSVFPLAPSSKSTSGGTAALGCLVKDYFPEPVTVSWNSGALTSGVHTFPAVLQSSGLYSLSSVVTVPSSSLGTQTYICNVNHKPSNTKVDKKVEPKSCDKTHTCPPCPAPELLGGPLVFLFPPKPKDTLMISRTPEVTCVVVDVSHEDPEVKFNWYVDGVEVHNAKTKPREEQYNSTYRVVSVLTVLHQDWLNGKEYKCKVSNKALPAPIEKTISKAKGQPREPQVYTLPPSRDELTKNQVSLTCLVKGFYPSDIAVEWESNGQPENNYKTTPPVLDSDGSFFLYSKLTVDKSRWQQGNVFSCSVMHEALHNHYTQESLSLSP
light: B1 light
notes: Substitution in both H chains; position in EU numbering; also called S239L homodimerized antibody
B27: GpH7-B3 variant T335_04F/GpL16-k0 (Ho Ab) (antibody, human IgG1, kappa)
heavy: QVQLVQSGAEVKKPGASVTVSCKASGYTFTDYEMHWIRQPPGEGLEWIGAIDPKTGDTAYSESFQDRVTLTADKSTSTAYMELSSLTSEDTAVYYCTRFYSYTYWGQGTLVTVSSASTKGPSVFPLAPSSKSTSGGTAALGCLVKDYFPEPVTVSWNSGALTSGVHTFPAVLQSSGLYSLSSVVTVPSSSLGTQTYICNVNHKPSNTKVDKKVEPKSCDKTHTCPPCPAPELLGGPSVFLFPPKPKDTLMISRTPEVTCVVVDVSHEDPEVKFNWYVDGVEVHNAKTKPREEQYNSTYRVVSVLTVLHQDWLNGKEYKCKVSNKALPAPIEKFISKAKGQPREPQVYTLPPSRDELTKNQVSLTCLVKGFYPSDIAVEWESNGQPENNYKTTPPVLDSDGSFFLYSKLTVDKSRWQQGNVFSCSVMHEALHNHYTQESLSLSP
light: B1 light
notes: Substitution in both H chains; position in EU numbering; also called T335F homodimerized antibody
B28: GpH7-A5/GpH7-B3 variant L328_03V/GpL16-k0 (He Ab) (antibody, human IgG1, kappa)
heavy 1: not shown
heavy 2: not shown
light: B1 light
notes: Substitution in one H chain only; position in EU numbering; also called L328V heterodimerized antibody
B29: GpH7-A5/GpH7-B3 variant L328_04F/GpL16-k0 (He Ab) (antibody, human IgG1, kappa)
heavy 1: not shown
heavy 2: not shown
light: B1 light
notes: Substitution in one H chain only; position in EU numbering; also called L328F heterodimerized antibody
B30: GpH7-A5/GpH7-B3 variant K334_18N/GpL16-k0 (He Ab) (antibody, human IgG1, kappa)
heavy 1: not shown
heavy 2: not shown
light: B1 light
notes: Substitution in one H chain only; position in EU numbering; also called K334N heterodimerized antibody
B31: GpH7-A5/GpH7-B3 variant K334_15Y/GpL16-k0 (He Ab) (antibody, human IgG1, kappa)
heavy 1: not shown
heavy 2: not shown
light: B1 light
notes: Substitution in one H chain only; position in EU numbering; also called K334Y heterodimerized antibody
B32: GpH7-A5/GpH7-B3 variant L328_14T/GpL16-k0 (He Ab) (antibody, human IgG1, kappa)
heavy 1: not shown
heavy 2: not shown
light: B1 light
notes: Substitution in one H chain only; position in EU numbering; also called L328T heterodimerized antibody
B33: GpH7-A5/GpH7-B3 variant P271_01G/GpL16-k0 (He Ab) (antibody, human IgG1, kappa)
heavy 1: not shown
heavy 2: not shown
light: B1 light
notes: Substitution in one H chain only; position in EU numbering; also called P271G heterodimerized antibody
B34: GpH7-A5/GpH7-B3 variant P238_08L/GpL16-k0 (He Ab) (antibody, human IgG1, kappa)
heavy 1: not shown
heavy 2: not shown
light: B1 light
notes: Substitution in one H chain only; position in EU numbering; also called P238L heterodimerized antibody
B35: GpH7-A5/GpH7-B3 variant L328_06M/GpL16-k0 (He Ab) (antibody, human IgG1, kappa)
heavy 1: not shown
heavy 2: not shown
light: B1 light
notes: Substitution in one H chain only; position in EU numbering; also called L328M heterodimerized antibody
B36: GpH7-A5/GpH7-B3 variant L328_19Q/GpL16-k0 (He Ab) (antibody, human IgG1, kappa)
heavy 1: not shown
heavy 2: not shown
light: B1 light
notes: Substitution in one H chain only; position in EU numbering; also called L328Q heterodimerized antibody
B37: GpH7-A5/GpH7-B3 variant L328_07I/GpL16-k0 (He Ab) (antibody, human IgG1, kappa)
heavy 1: not shown
heavy 2: not shown
light: B1 light
notes: Substitution in one H chain only; position in EU numbering; also called L328I heterodimerized antibody
B38: GpH7-A5/GpH7-B3 variant K334_19Q/GpL16-k0 (He Ab) (antibody, human IgG1, kappa)
heavy 1: not shown
heavy 2: not shown
light: B1 light
notes: Substitution in one H chain only; position in EU numbering; also called K334Q heterodimerized antibody
B39: GpH7-A5/GpH7-B3 variant K334_16H/GpL16-k0 (He Ab) (antibody, human IgG1, kappa)
heavy 1: not shown
heavy 2: not shown
light: B1 light
notes: Substitution in one H chain only; position in EU numbering; also called K334H heterodimerized antibody
B40: GpH7-A5/GpH7-B3 variant L328_15Y/GpL16-k0 (He Ab) (antibody, human IgG1, kappa)
heavy 1: not shown
heavy 2: not shown
light: B1 light
notes: Substitution in one H chain only; position in EU numbering; also called L328Y heterodimerized antibody

One test has as its target T1, FcγRIIb extracellular domain with …. Nature of the test: SPR (Biacore), antibody captured on antigen-peptide chip, FcgRIIb as analyte; binding relative to GpH7-B3/GpL16-k0 (HoCon Ab) = 100. On the technique in general: SPR reads the build-up and loss of mass on a sensor chip optically.
In the case of B1, the Ho/Con_2b is 146 % of control.
For the molecule B2, the Ho/Con_2b is 110 % of control.
Regarding B3, the Ho/Con_2b is 113 % of control.
With B4, the Ho/Con_2b is 213 % of control.
Turning to B5, the Ho/Con_2b is 125 % of control.
For the molecule B6, the Ho/Con_2b is 109 % of control.
Still for that read-out and setting: the result for B7 reads 206 % of control; that for B8, 113 % of control.
Still for that read-out and setting: the result for B9 reads 235 % of control; that for B10, 108 % of control; that for B11, 396 % of control.
For B12, the Ho/Con_2b is 229 % of control.
B13: the Ho/Con_2b is 274 % of control.
Same read-out and setting: the result for B14 reads 224 % of control; that for B15, 106 % of control; that for B16, 115 % of control.
The same measure, in the same setting: in the case of B17 it was 272 % of control; in that of B18, 174 % of control.
On the same count and under the same terms, the result for B19 reads 124 % of control; that for B20, 106 % of control.
Consider B21, for which the Ho/Con_2b is 111 % of control.
B22: the Ho/Con_2b is 327 % of control.
Still for that read-out and setting: the result for B23 reads 116 % of control; that for B24, 116 % of control; that for B25, 109 % of control.
On to B26, for which the Ho/Con_2b is 142 % of control.
As to B27, the Ho/Con_2b was 107 % of control.

Another test has the same target. Nature of the test: SPR (Biacore), antibody captured on antigen-peptide chip, FcgRIIb as analyte; binding relative to GpH7-A5/GpH7-B3/GpL16-k0 (HeCon Ab) = 100.
For the molecule B28, the He/Con_2b is 126 % of control.
The same measure, in the same setting: the result for B29 reads 219 % of control.
As for B30, the He/Con_2b is 115 % of control.
On the same count and under the same terms, in the case of B31 it was 109 % of control.
As to B32, the He/Con_2b was 141 % of control.
For B33, the He/Con_2b was 193 % of control.
The same measure, in the same setting: in the case of B34 it was 204 % of control.
Take B35: the He/Con_2b is 142 % of control.
In the case of B36, the He/Con_2b was 105 % of control.
On the same count and under the same terms, the result for B37 reads 160 % of control; that for B38, 109 % of control.
For B39, the He/Con_2b was 113 % of control.
Still for that read-out and setting: the result for B40 reads 193 % of control.
